Usually stoichiometry N stands for a count of units in the complex or per binding partner.

Here are results for two proteins from PMC2810632 (Neuron, 2009).

This data set concerns the molecule itself. The data set is described as follows: non-reducing SDS-PAGE of immunoprecipitates.

B1: Rat p75 neurotrophin receptor (p75^NTR), wild type, N-terminal HA tag (receptor, UniProt P07174 30-425, looked up)
chain: KETCSTGLYTHSGECCKACNLGEGVAQPCGANQTVCEPCLDNVTFSDVVSATEPCKPCTECLGLQSMSAPCVEADDAVCRCAYGYYQDEETGHCEACSVCEVGSGLVFSCQDKQNTVCEECPEGTYSDEANHVDPCLPCTVCEDTERQLRECTPWADAECEEIPGRWIPRSTPPEGSDSTAPSTQEPEVPPEQDLVPSTVADMVTTVMGSSQPVVTRGTTDNLIPVYCSILAAVVVGLVAYIAFKRWNSCKQNKQGANSRPVNQTPPPEGEKLHSDSGISVDSQSLHDQQTHTQTASGQALKGDGNLYSSLPLTKREEVEKLLNGDTWRHLAGELGYQPEHIDSFTHEACPVRALLASWGAQDSATLDALLAALRRIQRADIVESLCSESTATSPV
For B1, the “stoichiometry N” value was determined as 2.

B2: Endogenous rat p75^NTR (receptor, UniProt P07174 30-425, looked up)
chain: B1 chain
On to B2, for which the “stoichiometry N” value worked out at 2.
